The text below walks through data of patent US20030216563A1 (Scripps Research, published 2003).

The target of assay [1] is T1, Weel (Schizosaccharomyces pombe, UniProt P07527 1-877).
T1 construct: Endogenous protein co-purified from S. pombe cells and detected with antibodies to Weel; also called kinase Weel; native Weel protein
T1 sequence (looked up): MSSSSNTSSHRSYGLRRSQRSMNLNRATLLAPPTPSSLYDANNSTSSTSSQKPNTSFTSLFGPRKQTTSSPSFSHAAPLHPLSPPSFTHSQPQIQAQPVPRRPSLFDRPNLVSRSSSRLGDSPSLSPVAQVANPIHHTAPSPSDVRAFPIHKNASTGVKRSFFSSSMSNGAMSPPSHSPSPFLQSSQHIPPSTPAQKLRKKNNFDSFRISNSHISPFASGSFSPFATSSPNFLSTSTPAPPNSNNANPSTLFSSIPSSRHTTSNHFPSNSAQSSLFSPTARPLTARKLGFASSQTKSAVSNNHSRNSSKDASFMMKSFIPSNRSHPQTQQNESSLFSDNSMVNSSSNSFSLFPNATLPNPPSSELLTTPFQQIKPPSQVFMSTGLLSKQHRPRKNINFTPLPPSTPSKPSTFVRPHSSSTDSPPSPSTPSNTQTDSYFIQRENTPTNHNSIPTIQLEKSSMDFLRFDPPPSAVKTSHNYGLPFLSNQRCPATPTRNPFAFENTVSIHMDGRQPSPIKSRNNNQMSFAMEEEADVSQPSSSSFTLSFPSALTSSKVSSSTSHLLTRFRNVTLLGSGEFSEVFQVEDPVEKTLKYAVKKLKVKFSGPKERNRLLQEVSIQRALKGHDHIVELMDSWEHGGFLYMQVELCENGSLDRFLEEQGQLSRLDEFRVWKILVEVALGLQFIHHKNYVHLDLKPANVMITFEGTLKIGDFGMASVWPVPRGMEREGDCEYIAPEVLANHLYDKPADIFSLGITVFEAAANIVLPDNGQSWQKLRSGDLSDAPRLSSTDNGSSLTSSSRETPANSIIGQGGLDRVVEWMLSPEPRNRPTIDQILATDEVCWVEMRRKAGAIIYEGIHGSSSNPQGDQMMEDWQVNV
Briefly: GSH-Sepharose purification of GST fusion expressed in S. pombe, immunoblot. The protocol: (§1) FIG. 2D is a photograph of an analysis of proteins which illustrates that Weel interacts with GST:cds1⁺ but not GST:Chk1 in vivo. Strains carrying integrated nmt1:GST:chk1⁺ or nmt1:GST:cds1⁺ constructs were grown in minimal medium (EMM2) without thiamine at 30° C. for 16 hr to induce expression of GST fusion proteins. Cells were lysed and GST fusion proteins purified with GSH-Sepharose. After extensive washing, samples were resolved by 10% SDS-polyacrylamide gel electrophoresis and subjected to immunoblotting with antibodies to Weel, Cdc25 and GST. A ˜110 kDa protein corresponding to Weel was detected in the GST:Cds1 sample, whereas a ˜80 kDa protein corresponding to Cdc25 was detected in the GST:Chk1 sample. The ˜110 kDa protein was not detected in samples prepared from Δweel cells. GST:Cds1 and GST:Chk1 migrate at positions corresponding to ˜82 and ˜80 kDa, respectively.
(§2) As a control, a strain that expressed GST:Chk1 was used. The GST fusion proteins were purified with GSH-Sepharose and analyzed by immunoblotting. Cdc25 (but not Weel) associated with GST:Chk1, whereas Weel (but not Cdc25) associated with GST:Cds1 (FIG. 2D).
Background: In western blotting, separated proteins are transferred to a membrane and probed.

Assay [2] deals with T2, Cdc25 (Schizosaccharomyces pombe, UniProt P06652 1-596).
T2 construct: Endogenous protein co-purified from S. pombe cells and detected with antibodies to Cdc25
T2 sequence (looked up): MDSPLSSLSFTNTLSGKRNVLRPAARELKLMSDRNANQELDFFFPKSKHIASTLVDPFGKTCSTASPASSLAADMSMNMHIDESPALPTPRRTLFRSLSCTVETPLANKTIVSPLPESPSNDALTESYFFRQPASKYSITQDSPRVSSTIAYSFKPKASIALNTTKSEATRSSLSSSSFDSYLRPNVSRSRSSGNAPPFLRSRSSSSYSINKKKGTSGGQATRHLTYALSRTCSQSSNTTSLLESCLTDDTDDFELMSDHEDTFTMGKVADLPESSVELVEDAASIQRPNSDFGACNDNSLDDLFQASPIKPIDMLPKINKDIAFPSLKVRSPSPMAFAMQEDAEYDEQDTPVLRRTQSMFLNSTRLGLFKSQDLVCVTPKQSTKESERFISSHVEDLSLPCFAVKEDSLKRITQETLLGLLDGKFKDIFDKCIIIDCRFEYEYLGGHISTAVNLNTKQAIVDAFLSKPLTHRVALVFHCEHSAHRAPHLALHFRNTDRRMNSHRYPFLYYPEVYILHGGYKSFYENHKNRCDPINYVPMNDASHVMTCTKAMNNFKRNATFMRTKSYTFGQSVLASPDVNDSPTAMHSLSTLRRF
Nature of the assay: GSH-Sepharose purification of GST fusion expressed in S. pombe, immunoblot with antibodies to Cdc25. The protocol:
as §1, §2

Assay [3] addresses T2, Cdc25. Briefly: GSH-Sepharose purification of GST fusion expressed in S. pombe, immunoblot. The protocol: as §1, §2
The target in assay [4] is T1, Weel. Nature of the assay: GSH-Sepharose purification of GST fusion expressed in S. pombe, immunoblot with antibodies to Weel. The protocol:
as §1, §2

B1: GST:Cds1 (other, Schizosaccharomyces pombe, UniProt Q09170 1-460, looked up)
chain: MEEPEEATQATQEAPLHVSQNIAKQVVNNENVFMKLVMTRMLDGKTEVIPLTTDVHNGFWRFGRHKSCEVVLNGPRVSNFHFEIYQGHRNDSDESENVVFLHDHSSNGTFLNFERLAKNSRTILSNGDEIRIGLGVPKDEISFLCQVPVKHSRDSQKNMIKSENSHYEIIRTLGSGTFAVVKLAVEVNSGKWYAIKIINKRKILLTSSEKRATEMFQREIDILKSLHHPGVVQCHEIFENDDELFIVMEYVEGGDLMDFLIANGSIDEQDCKPLLKQLLETLLHLHKQGVTHRDIKPENILITNDFHLKISDFGLAKVIHGTGTFLETFCGTMGYLAPEVLKSKNVNLDGGYDDKVDIWSLGCVLYVMLTASIPFASSSQAKCIELISKGAYPIEPLLENEISEEGIDLINRMLEINPEKRISESEALQHPWFYTVSTHEHRTPPSSSEHEATEQLNSSS
notes: Expressed in S. pombe from the integrated nmt1:GST:cds1+ construct; Migrates at ~82 kDa; not shown: glutathione-S-transferase
Regarding B1, the binding result in assay [1] was “binds”; in assay [2], “no binding”.

B2: GST:Chk1 (other, Schizosaccharomyces pombe, UniProt P34208 1-496, looked up)
chain: MAQKLDNFPYHIGREIGTGAFASVRLCYDDNAKIYAVKFVNKKHATSCMNAGVWARRMASEIQLHKLCNGHKNIIHFYNTAENPQWRWVVLEFAQGGDLFDKIEPDVGIDEDVAQFYFAQLMEGISFMHSKGVAHRDLKPENILLDYNGNLKISDFGFASLFSYKGKSRLLNSPVGSPPYAAPEITQQYDGSKVDVWSCGIILFALLLGNTPWDEAISNTGDYLLYKKQCERPSYHPWNLLSPGAYSIITGMLRSDPFKRYSVKHVVQHPWLTSSTPFRTKNGNCADPVALASRLMLKLRIDLDKPRLASSRASQNDSGFSMTQPAFKKNDQKELDRVEVYGALSQPVQLNKNIDVTEILEKDPSLSQFCENEGFIKRLAKKAKNFYEICPPERLTRFYSRASRETIIDHLYDSLRLLAISVTMKYVRNQTILYVNLHDKRKCLLQGVIELTNLGHNLELINFIKRNGDPLEWRKFFKNVVSSIGKPIVLTDVSQN
notes: Expressed in S. pombe from the integrated nmt1:GST:chk1+ construct; Migrates at ~80 kDa; not shown: glutathione-S-transferase
Turning to B2, the binding result is reported as “binds” in assay [3] and “no binding” in assay [4].
